Measurements as given in patent US7648964B2, “Use of lacritin in promoting ocular cell survival” (University of Virginia Patent Foundation, priority 2004, dated 2010).

Assays:
Conditions in all cases: 0-30 nM lacritin
collagen I = collagen I (Homo sapiens, UniProt P02452+P08123); experiment: ECM binding ELISA
Experimental: (§1) Binding studies were carried out in 96 well plates coated with 10 μg/well of collagen IV, laminin-1, entactin/nidogen-1, collagen I, fibronectin, vitronectin, EGF, heparin or BMS. Wells were washed, blocked (PBS-T), incubated with 0-30 nM lacritin (in PBS-T containing 1% BSA) for 1 hr (4° C.), washed and detected with anti-lacritin antibody (1/1000) by ELISA.

ECM binding ELISA = experiment: ECM binding ELISA
Experimental: as §1

nidogen/entactin = target: T1, nidogen/entactin (Homo sapiens, UniProt P14543); experiment: ECM binding ELISA
T1 sequence (P14543 29-1247): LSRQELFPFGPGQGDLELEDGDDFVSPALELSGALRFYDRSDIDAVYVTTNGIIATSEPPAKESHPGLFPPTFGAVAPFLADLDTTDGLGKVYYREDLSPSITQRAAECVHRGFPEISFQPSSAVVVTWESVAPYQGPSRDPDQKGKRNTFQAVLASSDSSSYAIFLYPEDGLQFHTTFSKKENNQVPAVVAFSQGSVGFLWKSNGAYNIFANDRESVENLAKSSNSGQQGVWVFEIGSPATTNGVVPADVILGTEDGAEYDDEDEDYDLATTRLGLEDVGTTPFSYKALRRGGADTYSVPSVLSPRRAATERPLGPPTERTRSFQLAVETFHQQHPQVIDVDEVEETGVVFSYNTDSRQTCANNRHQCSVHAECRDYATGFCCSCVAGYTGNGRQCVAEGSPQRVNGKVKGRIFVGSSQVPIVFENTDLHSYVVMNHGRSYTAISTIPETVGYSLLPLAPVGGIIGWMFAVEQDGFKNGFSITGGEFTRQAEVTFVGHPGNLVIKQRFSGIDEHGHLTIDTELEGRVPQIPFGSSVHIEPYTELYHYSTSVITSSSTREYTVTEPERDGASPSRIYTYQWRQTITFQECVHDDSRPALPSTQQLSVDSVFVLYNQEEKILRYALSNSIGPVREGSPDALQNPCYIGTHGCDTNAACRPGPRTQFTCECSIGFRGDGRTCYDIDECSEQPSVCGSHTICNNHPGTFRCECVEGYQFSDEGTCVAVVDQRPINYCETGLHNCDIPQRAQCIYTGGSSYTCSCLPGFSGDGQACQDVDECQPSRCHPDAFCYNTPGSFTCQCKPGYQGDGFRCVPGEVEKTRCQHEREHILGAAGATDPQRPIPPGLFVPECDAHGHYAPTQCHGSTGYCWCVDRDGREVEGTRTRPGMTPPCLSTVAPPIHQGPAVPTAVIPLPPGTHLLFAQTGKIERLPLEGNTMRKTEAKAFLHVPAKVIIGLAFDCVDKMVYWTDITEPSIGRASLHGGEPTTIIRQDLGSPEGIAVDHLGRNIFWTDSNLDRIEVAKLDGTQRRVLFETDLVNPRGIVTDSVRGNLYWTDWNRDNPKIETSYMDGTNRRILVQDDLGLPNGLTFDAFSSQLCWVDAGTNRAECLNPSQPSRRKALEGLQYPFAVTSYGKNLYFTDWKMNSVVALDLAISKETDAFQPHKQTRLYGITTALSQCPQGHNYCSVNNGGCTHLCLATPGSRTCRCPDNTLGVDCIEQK
Experimental: as §1

collagen IV = experiment: ECM binding ELISA
Experimental: as §1

fibronectin = fibronectin (Homo sapiens, UniProt P02751); experiment: ECM binding ELISA
Chain of fibronectin (P02751 32-2477, species assumed): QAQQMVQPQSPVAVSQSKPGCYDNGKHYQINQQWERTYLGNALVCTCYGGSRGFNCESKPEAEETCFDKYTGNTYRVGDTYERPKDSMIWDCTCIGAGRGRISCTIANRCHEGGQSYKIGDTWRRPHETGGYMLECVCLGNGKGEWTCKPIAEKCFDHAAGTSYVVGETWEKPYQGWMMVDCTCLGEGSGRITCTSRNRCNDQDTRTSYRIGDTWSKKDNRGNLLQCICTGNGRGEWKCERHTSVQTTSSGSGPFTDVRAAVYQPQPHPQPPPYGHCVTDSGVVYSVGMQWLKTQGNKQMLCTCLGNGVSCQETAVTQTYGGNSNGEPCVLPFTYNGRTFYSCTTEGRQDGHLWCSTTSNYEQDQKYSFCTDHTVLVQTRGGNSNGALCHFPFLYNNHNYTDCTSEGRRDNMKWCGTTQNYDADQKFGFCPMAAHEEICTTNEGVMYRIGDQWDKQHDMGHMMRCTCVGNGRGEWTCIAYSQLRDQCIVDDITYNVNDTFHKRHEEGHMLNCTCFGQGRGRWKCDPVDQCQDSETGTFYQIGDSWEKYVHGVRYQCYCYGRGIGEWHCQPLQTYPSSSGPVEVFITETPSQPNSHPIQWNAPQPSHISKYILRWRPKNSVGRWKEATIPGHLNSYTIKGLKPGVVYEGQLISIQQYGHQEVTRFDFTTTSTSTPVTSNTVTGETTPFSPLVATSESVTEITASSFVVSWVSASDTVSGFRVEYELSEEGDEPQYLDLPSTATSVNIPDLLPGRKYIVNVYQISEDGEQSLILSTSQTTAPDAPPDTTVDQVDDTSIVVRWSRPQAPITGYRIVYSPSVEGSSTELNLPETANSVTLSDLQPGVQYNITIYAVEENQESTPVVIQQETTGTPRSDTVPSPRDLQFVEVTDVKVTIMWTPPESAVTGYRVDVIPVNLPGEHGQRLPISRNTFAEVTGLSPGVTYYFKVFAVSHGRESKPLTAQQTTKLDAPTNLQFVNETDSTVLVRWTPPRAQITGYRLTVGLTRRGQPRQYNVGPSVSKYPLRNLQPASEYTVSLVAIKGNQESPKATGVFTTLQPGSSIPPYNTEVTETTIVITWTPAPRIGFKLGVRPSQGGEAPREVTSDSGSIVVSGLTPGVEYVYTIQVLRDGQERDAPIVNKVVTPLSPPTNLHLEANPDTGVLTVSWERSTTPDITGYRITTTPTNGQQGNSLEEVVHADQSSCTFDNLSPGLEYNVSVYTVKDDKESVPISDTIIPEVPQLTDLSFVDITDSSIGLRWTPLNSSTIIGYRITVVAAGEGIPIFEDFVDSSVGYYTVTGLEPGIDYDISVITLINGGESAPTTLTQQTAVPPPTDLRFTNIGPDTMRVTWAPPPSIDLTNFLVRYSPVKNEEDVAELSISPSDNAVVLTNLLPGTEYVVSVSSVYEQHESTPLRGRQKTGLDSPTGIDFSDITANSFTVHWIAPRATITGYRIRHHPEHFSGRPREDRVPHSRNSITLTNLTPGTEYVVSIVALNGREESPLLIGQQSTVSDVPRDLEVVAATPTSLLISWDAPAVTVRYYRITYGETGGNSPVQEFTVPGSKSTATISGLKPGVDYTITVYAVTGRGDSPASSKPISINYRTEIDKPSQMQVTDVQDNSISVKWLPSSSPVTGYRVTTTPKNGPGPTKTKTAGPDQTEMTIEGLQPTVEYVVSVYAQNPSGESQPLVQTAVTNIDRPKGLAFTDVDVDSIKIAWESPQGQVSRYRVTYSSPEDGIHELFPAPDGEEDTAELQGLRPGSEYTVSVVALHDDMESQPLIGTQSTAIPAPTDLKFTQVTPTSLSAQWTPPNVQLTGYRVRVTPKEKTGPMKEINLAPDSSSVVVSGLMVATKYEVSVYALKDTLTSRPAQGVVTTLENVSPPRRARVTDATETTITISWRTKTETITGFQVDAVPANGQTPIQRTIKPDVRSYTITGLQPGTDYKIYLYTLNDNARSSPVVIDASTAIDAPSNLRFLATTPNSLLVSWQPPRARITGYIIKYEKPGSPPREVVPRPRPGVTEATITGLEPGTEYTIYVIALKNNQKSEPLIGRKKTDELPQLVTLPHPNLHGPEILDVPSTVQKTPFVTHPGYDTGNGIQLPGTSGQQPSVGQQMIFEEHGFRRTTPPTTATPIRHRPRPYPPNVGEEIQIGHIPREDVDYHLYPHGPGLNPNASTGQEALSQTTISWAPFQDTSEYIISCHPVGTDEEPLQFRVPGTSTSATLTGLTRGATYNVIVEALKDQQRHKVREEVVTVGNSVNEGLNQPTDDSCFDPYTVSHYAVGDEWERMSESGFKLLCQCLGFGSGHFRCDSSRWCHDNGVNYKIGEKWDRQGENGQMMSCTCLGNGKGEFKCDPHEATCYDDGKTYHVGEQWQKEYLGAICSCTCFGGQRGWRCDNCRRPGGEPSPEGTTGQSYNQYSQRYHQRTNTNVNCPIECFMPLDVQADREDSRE
Experimental: as §1

EGF = EGF (Homo sapiens, UniProt P01133); experiment: ECM binding ELISA
Chain of EGF (P01133 971-1023 limits assumed, species assumed): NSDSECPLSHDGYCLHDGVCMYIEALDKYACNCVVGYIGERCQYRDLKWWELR
Experimental: as §1

vitronectin = target: T2, vitronectin (Homo sapiens, UniProt P04004); experiment: ECM binding ELISA
T2 sequence (P04004 20-478): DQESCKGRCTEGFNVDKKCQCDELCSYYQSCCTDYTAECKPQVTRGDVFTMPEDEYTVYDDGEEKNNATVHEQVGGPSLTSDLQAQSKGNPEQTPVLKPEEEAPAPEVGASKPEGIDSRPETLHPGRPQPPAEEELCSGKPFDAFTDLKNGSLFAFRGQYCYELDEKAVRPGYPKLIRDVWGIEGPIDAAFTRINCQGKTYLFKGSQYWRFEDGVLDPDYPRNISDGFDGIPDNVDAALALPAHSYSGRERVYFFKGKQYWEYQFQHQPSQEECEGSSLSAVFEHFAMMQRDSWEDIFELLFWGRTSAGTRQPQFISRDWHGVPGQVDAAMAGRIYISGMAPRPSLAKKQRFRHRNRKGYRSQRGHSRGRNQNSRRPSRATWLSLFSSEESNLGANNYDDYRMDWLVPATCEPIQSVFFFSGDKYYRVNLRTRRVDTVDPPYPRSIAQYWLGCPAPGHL
Experimental: as §1

laminin-1 = experiment: ECM binding ELISA
Experimental: as §1

Chain of collagen I (P02452 162-1218 limits assumed): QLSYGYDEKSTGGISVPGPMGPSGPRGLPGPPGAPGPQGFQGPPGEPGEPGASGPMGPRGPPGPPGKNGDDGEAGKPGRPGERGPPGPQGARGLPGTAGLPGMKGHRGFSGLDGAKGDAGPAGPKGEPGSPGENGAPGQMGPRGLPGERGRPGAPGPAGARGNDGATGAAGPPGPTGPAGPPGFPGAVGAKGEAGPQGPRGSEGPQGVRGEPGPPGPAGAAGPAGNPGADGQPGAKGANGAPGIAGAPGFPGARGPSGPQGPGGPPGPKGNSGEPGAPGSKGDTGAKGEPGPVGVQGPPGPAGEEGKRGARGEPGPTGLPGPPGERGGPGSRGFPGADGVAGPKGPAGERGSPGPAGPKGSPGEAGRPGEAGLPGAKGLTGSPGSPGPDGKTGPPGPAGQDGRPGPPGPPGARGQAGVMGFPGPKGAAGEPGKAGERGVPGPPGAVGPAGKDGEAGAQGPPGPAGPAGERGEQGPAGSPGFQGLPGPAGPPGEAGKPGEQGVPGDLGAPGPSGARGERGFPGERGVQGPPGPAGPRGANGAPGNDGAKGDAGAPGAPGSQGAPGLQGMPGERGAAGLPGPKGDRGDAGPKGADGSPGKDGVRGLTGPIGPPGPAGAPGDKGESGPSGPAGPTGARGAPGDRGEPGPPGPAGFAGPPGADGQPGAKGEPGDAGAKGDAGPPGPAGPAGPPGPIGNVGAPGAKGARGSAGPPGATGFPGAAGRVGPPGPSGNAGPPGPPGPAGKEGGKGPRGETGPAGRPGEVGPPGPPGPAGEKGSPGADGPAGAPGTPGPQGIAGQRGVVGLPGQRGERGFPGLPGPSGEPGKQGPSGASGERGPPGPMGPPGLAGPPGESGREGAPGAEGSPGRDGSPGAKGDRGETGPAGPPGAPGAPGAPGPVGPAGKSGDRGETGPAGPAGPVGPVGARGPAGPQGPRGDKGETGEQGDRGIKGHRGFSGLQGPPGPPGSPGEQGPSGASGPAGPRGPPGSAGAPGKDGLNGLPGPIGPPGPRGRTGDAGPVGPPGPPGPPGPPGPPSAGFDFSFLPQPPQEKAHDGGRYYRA
Chain of collagen I (P08123 80-1119 limits assumed): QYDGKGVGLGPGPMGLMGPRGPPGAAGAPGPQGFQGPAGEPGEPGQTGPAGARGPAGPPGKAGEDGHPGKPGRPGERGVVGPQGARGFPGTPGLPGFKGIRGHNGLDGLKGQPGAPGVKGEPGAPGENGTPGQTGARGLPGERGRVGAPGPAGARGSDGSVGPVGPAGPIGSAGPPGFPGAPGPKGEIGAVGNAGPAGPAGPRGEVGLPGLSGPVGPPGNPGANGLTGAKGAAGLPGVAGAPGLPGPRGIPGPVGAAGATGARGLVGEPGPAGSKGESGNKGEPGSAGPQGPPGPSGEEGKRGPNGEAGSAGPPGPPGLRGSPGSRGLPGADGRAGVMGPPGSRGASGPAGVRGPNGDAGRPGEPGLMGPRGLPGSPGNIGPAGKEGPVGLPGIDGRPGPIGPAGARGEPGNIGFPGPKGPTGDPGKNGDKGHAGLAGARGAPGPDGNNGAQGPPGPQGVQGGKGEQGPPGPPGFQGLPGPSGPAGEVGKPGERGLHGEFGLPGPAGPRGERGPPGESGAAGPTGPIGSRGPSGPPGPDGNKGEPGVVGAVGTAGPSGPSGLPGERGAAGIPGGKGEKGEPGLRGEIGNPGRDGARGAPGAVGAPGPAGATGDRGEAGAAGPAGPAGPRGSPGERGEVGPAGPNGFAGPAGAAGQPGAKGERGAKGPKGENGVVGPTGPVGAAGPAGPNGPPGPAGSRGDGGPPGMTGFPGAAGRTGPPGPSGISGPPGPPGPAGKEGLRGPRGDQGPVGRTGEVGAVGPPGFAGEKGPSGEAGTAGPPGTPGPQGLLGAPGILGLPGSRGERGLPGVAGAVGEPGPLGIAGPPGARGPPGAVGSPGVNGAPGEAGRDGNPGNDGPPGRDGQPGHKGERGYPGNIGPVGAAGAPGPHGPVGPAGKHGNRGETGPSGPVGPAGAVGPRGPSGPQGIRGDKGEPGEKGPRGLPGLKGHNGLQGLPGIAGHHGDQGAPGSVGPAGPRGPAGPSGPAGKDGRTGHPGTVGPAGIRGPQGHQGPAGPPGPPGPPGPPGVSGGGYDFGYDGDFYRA

B1: lacritin: recombinant human lacritin from E. coli; mature 119 residue fragment (SEQ ID NO:10) of native lacritin SEQ ID NO:4 (protein, listed as Homo sapiens)
chain: EDASSDSTGADPAQEAGTSKPNEEISGPAEPASPPETTTTAQETSAAAVQGTAKVTSSRQELNPLKSIVEKSILLTEQALAKAGKGMHGGVPGGKQFIENGSEFAQKLLKKFSLLKPWA
For B1, the “binding to collagen I” value (collagen I) was “No binding”, the binding to heparin (ECM binding ELISA) was “No binding” and the binding to nidogen/entactin (nidogen/entactin) was “strong basement membrane binding”. For the same molecule, the “binding to collagen IV” value (collagen IV) was “strong basement membrane binding”, the binding to fibronectin (fibronectin) was “remarkable avidity” and the “binding to EGF” value (EGF) was “No binding”. The binding to vitronectin (vitronectin) was “remarkable avidity” and the “binding to laminin-1” value (laminin-1) was “strong basement membrane binding”.
